In the RNAGym collection of RNA variant scans (doi:10.1021/acssynbio.7b00057):

B1: Pistol ribozyme (parent)
chain: GGGUCGUUGUUCCAUAAUCGCGUGGAUAUGGCACGCAAGUUUCUACCGGGCACCGUAAAUGUCCGACUGGAGCCGUUCGGGCGGCUAUAAACAGACCUCAGGCCCGAAGCGUGGCGGCACCUGCCGCCGGUGGUAAAAAAGAUCGGAAGAGCACACGUCU

Variants of: B1
Test: aptazyme ON/OFF ratio, guanine; higher = stronger switching; co-transcriptional cleavage with and without guanine

Row | Variant | aptazyme ON/OFF ratio
1 | GGGUCGUCGCUAGAUAAUCGCGUGGAUAUGGCACGCAAGUUUCUACCGGGCACCGUAAAUGUCCGACUGGAGCCGUUCGGGCGGCUAUAAACAGACCUCAGGCCCGAAGCGUGGCGGCACCUGCCGCCGGUGGUAAAAAAGAUCGGAAGAGCACACGUCU | 1.17
2 | GGGUCGUCGCUAUAUAAUCGCGUGGAUAUGGCACGCAAGUUUCUACCGGGCACCGUAAAUGUCCGACUGGAGCCGUUCGGGCGGCUAUAAACAGACCUCAGGCCCGAAGCGUGGCGGCACCUGCCGCCGGUGGUAAAAAAGAUCGGAAGAGCACACGUCU | 1.42
3 | GGGUCGUCGCUAAAUAAUCGCGUGGAUAUGGCACGCAAGUUUCUACCGGGCACCGUAAAUGUCCGACUGGAGCCGUUCGGGCGGCUAUAAACAGACCUCAGGCCCGAAGCGUGGCGGCACCUGCCGCCGGUGGUAAAAAAGAUCGGAAGAGCACACGUCU | 1.33
4 | GGGUCGUCGCUCAAUAAUCGCGUGGAUAUGGCACGCAAGUUUCUACCGGGCACCGUAAAUGUCCGACUGGAGCCGUUCGGGCGGCUAUAAACAGACCUCAGGCCCGAAGCGUGGCGGCACCUGCCGCCGGUGGUAAAAAAGAUCGGAAGAGCACACGUCU | 1.07
5 | GGGUCGUCGCUCGAUAAUCGCGUGGAUAUGGCACGCAAGUUUCUACCGGGCACCGUAAAUGUCCGACUGGAGCCGUUCGGGCGGCUAUAAACAGACCUCAGGCCCGAAGCGUGGCGGCACCUGCCGCCGGUGGUAAAAAAGAUCGGAAGAGCACACGUCU | 1.26
6 | GGGUCGUCGCUCUAUAAUCGCGUGGAUAUGGCACGCAAGUUUCUACCGGGCACCGUAAAUGUCCGACUGGAGCCGUUCGGGCGGCUAUAAACAGACCUCAGGCCCGAAGCGUGGCGGCACCUGCCGCCGGUGGUAAAAAAGAUCGGAAGAGCACACGUCU | 1.51
7 | GGGUCGUCGCAGAAUAAUCGCGUGGAUAUGGCACGCAAGUUUCUACCGGGCACCGUAAAUGUCCGACUGGAGCCGUUCGGGCGGCUAUAAACAGACCUCAGGCCCGAAGCGUGGCGGCACCUGCCGCCGGUGGUAAAAAAGAUCGGAAGAGCACACGUCU | 1.2
8 | GGGUCGUCGCAGUAUAAUCGCGUGGAUAUGGCACGCAAGUUUCUACCGGGCACCGUAAAUGUCCGACUGGAGCCGUUCGGGCGGCUAUAAACAGACCUCAGGCCCGAAGCGUGGCGGCACCUGCCGCCGGUGGUAAAAAAGAUCGGAAGAGCACACGUCU | 1.24
9 | GGGUCGUCGCAGGAUAAUCGCGUGGAUAUGGCACGCAAGUUUCUACCGGGCACCGUAAAUGUCCGACUGGAGCCGUUCGGGCGGCUAUAAACAGACCUCAGGCCCGAAGCGUGGCGGCACCUGCCGCCGGUGGUAAAAAAGAUCGGAAGAGCACACGUCU | 1.24
10 | GGGUCGUCGCACUAUAAUCGCGUGGAUAUGGCACGCAAGUUUCUACCGGGCACCGUAAAUGUCCGACUGGAGCCGUUCGGGCGGCUAUAAACAGACCUCAGGCCCGAAGCGUGGCGGCACCUGCCGCCGGUGGUAAAAAAGAUCGGAAGAGCACACGUCU | 1.28
11 | GGGUCGUCGCACAAUAAUCGCGUGGAUAUGGCACGCAAGUUUCUACCGGGCACCGUAAAUGUCCGACUGGAGCCGUUCGGGCGGCUAUAAACAGACCUCAGGCCCGAAGCGUGGCGGCACCUGCCGCCGGUGGUAAAAAAGAUCGGAAGAGCACACGUCU | 1.32
12 | GGGUCGUCGCACGAUAAUCGCGUGGAUAUGGCACGCAAGUUUCUACCGGGCACCGUAAAUGUCCGACUGGAGCCGUUCGGGCGGCUAUAAACAGACCUCAGGCCCGAAGCGUGGCGGCACCUGCCGCCGGUGGUAAAAAAGAUCGGAAGAGCACACGUCU | 1.23
13 | GGGUCGUCGCUUGAUAAUCGCGUGGAUAUGGCACGCAAGUUUCUACCGGGCACCGUAAAUGUCCGACUGGAGCCGUUCGGGCGGCUAUAAACAGACCUCAGGCCCGAAGCGUGGCGGCACCUGCCGCCGGUGGUAAAAAAGAUCGGAAGAGCACACGUCU | 1.26
14 | GGGUCGUCGCUUAAUAAUCGCGUGGAUAUGGCACGCAAGUUUCUACCGGGCACCGUAAAUGUCCGACUGGAGCCGUUCGGGCGGCUAUAAACAGACCUCAGGCCCGAAGCGUGGCGGCACCUGCCGCCGGUGGUAAAAAAGAUCGGAAGAGCACACGUCU | 1.21
15 | GGGUCGUCGCUUUAUAAUCGCGUGGAUAUGGCACGCAAGUUUCUACCGGGCACCGUAAAUGUCCGACUGGAGCCGUUCGGGCGGCUAUAAACAGACCUCAGGCCCGAAGCGUGGCGGCACCUGCCGCCGGUGGUAAAAAAGAUCGGAAGAGCACACGUCU | 1.41
16 | GGGUCGUCGCAUGAUAAUCGCGUGGAUAUGGCACGCAAGUUUCUACCGGGCACCGUAAAUGUCCGACUGGAGCCGUUCGGGCGGCUAUAAACAGACCUCAGGCCCGAAGCGUGGCGGCACCUGCCGCCGGUGGUAAAAAAGAUCGGAAGAGCACACGUCU | 1.23
17 | GGGUCGUCGCAUAAUAAUCGCGUGGAUAUGGCACGCAAGUUUCUACCGGGCACCGUAAAUGUCCGACUGGAGCCGUUCGGGCGGCUAUAAACAGACCUCAGGCCCGAAGCGUGGCGGCACCUGCCGCCGGUGGUAAAAAAGAUCGGAAGAGCACACGUCU | 1.26
18 | GGGUCGUCGCAUUAUAAUCGCGUGGAUAUGGCACGCAAGUUUCUACCGGGCACCGUAAAUGUCCGACUGGAGCCGUUCGGGCGGCUAUAAACAGACCUCAGGCCCGAAGCGUGGCGGCACCUGCCGCCGGUGGUAAAAAAGAUCGGAAGAGCACACGUCU | 1.35

Row | Variant | aptazyme ON/OFF ratio
19 | GGGUCGUCGCACCAUAAUCGCGUGGAUAUGGCACGCAAGUUUCUACCGGGCACCGUAAAUGUCCGACUGGAGCCGUUCGGGCGGCUAUAAACAGACCUCAGGCCCGAAGCGUGGCGGCACCUGCCGCCGGUGGUAAAAAAGAUCGGAAGAGCACACGUCU | 1.63
20 | GGGUCGUCGCCCCAUAAUCGCGUGGAUAUGGCACGCAAGUUUCUACCGGGCACCGUAAAUGUCCGACUGGAGCCGUUCGGGCGGCUAUAAACAGACCUCAGGCCCGAAGCGUGGCGGCACCUGCCGCCGGUGGUAAAAAAGAUCGGAAGAGCACACGUCU | 1.85
21 | GGGUCGUCGCUACAUAAUCGCGUGGAUAUGGCACGCAAGUUUCUACCGGGCACCGUAAAUGUCCGACUGGAGCCGUUCGGGCGGCUAUAAACAGACCUCAGGCCCGAAGCGUGGCGGCACCUGCCGCCGGUGGUAAAAAAGAUCGGAAGAGCACACGUCU | 1.34
22 | GGGUCGUCGCUGCAUAAUCGCGUGGAUAUGGCACGCAAGUUUCUACCGGGCACCGUAAAUGUCCGACUGGAGCCGUUCGGGCGGCUAUAAACAGACCUCAGGCCCGAAGCGUGGCGGCACCUGCCGCCGGUGGUAAAAAAGAUCGGAAGAGCACACGUCU | 1.29
23 | GGGUCGUCGCUUCAUAAUCGCGUGGAUAUGGCACGCAAGUUUCUACCGGGCACCGUAAAUGUCCGACUGGAGCCGUUCGGGCGGCUAUAAACAGACCUCAGGCCCGAAGCGUGGCGGCACCUGCCGCCGGUGGUAAAAAAGAUCGGAAGAGCACACGUCU | 2.98
24 | GGGUCGUCGCUCCAUAAUCGCGUGGAUAUGGCACGCAAGUUUCUACCGGGCACCGUAAAUGUCCGACUGGAGCCGUUCGGGCGGCUAUAAACAGACCUCAGGCCCGAAGCGUGGCGGCACCUGCCGCCGGUGGUAAAAAAGAUCGGAAGAGCACACGUCU | 2.68
25 | GGGUCGUCGCCACAUAAUCGCGUGGAUAUGGCACGCAAGUUUCUACCGGGCACCGUAAAUGUCCGACUGGAGCCGUUCGGGCGGCUAUAAACAGACCUCAGGCCCGAAGCGUGGCGGCACCUGCCGCCGGUGGUAAAAAAGAUCGGAAGAGCACACGUCU | 1.25
26 | GGGUCGUCGCUGAAUAAUCGCGUGGAUAUGGCACGCAAGUUUCUACCGGGCACCGUAAAUGUCCGACUGGAGCCGUUCGGGCGGCUAUAAACAGACCUCAGGCCCGAAGCGUGGCGGCACCUGCCGCCGGUGGUAAAAAAGAUCGGAAGAGCACACGUCU | 1.37
27 | GGGUCGUCGCUGUAUAAUCGCGUGGAUAUGGCACGCAAGUUUCUACCGGGCACCGUAAAUGUCCGACUGGAGCCGUUCGGGCGGCUAUAAACAGACCUCAGGCCCGAAGCGUGGCGGCACCUGCCGCCGGUGGUAAAAAAGAUCGGAAGAGCACACGUCU | 1.33
28 | GGGUCGUCGCUGGAUAAUCGCGUGGAUAUGGCACGCAAGUUUCUACCGGGCACCGUAAAUGUCCGACUGGAGCCGUUCGGGCGGCUAUAAACAGACCUCAGGCCCGAAGCGUGGCGGCACCUGCCGCCGGUGGUAAAAAAGAUCGGAAGAGCACACGUCU | 1.29
29 | GGGUCGUCGAGCUAUAAUCGCGUGGAUAUGGCACGCAAGUUUCUACCGGGCACCGUAAAUGUCCGACUGGAGCCGUUCGGGCGGCUAUAAACAGACCUCAGGCCCGAAGCGUGGCGGCACCUGCCGCCGGUGGUAAAAAAGAUCGGAAGAGCACACGUCU | 1.23
30 | GGGUCGUCGAGCGAUAAUCGCGUGGAUAUGGCACGCAAGUUUCUACCGGGCACCGUAAAUGUCCGACUGGAGCCGUUCGGGCGGCUAUAAACAGACCUCAGGCCCGAAGCGUGGCGGCACCUGCCGCCGGUGGUAAAAAAGAUCGGAAGAGCACACGUCU | 1.29
31 | GGGUCGUCGCAACAUAAUCGCGUGGAUAUGGCACGCAAGUUUCUACCGGGCACCGUAAAUGUCCGACUGGAGCCGUUCGGGCGGCUAUAAACAGACCUCAGGCCCGAAGCGUGGCGGCACCUGCCGCCGGUGGUAAAAAAGAUCGGAAGAGCACACGUCU | 1.34
32 | GGGUCGUCGCAGCAUAAUCGCGUGGAUAUGGCACGCAAGUUUCUACCGGGCACCGUAAAUGUCCGACUGGAGCCGUUCGGGCGGCUAUAAACAGACCUCAGGCCCGAAGCGUGGCGGCACCUGCCGCCGGUGGUAAAAAAGAUCGGAAGAGCACACGUCU | 1.35
33 | GGGUCGUCGCAUCAUAAUCGCGUGGAUAUGGCACGCAAGUUUCUACCGGGCACCGUAAAUGUCCGACUGGAGCCGUUCGGGCGGCUAUAAACAGACCUCAGGCCCGAAGCGUGGCGGCACCUGCCGCCGGUGGUAAAAAAGAUCGGAAGAGCACACGUCU | 1.39
34 | GGGUCGUCGCAAUAUAAUCGCGUGGAUAUGGCACGCAAGUUUCUACCGGGCACCGUAAAUGUCCGACUGGAGCCGUUCGGGCGGCUAUAAACAGACCUCAGGCCCGAAGCGUGGCGGCACCUGCCGCCGGUGGUAAAAAAGAUCGGAAGAGCACACGUCU | 1.25
35 | GGGUCGUCGCAAGAUAAUCGCGUGGAUAUGGCACGCAAGUUUCUACCGGGCACCGUAAAUGUCCGACUGGAGCCGUUCGGGCGGCUAUAAACAGACCUCAGGCCCGAAGCGUGGCGGCACCUGCCGCCGGUGGUAAAAAAGAUCGGAAGAGCACACGUCU | 1.14
36 | GGGUCGUCGCAAAAUAAUCGCGUGGAUAUGGCACGCAAGUUUCUACCGGGCACCGUAAAUGUCCGACUGGAGCCGUUCGGGCGGCUAUAAACAGACCUCAGGCCCGAAGCGUGGCGGCACCUGCCGCCGGUGGUAAAAAAGAUCGGAAGAGCACACGUCU | 1.35
